Measured values taken from paper PMC12024540, “Peptide-Based Regulation of TNF-α-Mediated Cytotoxicity” (Biomolecules, 2025).

Test system: caspase-3 and caspase-7 activities in L929 cells
Assay: Caspase-Glo 3/7 apoptosis assay on TNF-α-stimulated L929 cells
Assay type: cell-based, mouse
Conditions: at 10 nM and 100 nM with TNF-α 1 ng/mL
Protocol: Apoptosis was detected by measuring caspase-3 and caspase-7 activities with the Promega Caspase-Glo 3/7 Assay Kit. A total of 1.5 × 10^4 cells were seeded onto opaque 96-well tissue culture plates. After 24 ± 2 h of incubation, cells were stimulated with the same concentration of actinomycin D and TNF-α with different peptide concentrations. After 4 h of incubation in 5% CO2 at 37 °C, freshly prepared caspase 3/7 reagent was added to each well, followed by incubation for 1 h at room temperature. Luminescence was measured using a plate reader (CLARIOstar Plus, BMG Labtech, Ortenberg, Germany). Fold change was calculated from the ratio of luminescence of cell control to that of TNF-α-treated cells.

B1: TNFR1: Human TNFR1 (soluble) recombinant protein applied with TNF-α in the caspase 3/7 assay (protein)
chain: SVCPQGKYIHPQNNSICCTKCHKGTYLYNDCPGPGQDTDCRECESGSFTASENHLRHCLSCSKCRKEMGQVEISSCTVDRDTVCGCRKNQYRHYWSENLFQCFNCSLCLNGTVHLSCQEKQNTVCTCHAGFFLRENECVS
modifications: fluorescent label from the Monolith Protein Labeling Kit RED-NHS 2nd Generation (labelled target in MST)
notes: Human TNFR1 (soluble) recombinant protein applied with TNF-α in the caspase 3/7 assay
**Q.** For B1, which “effect on caspase 3/7 activity” value is on record?
**A.** significantly reduced caspase 3/7 activity
